Laboratory results: patent publication US7851592B2, “Compositions and methods for inhibiting G2 cell cycle arrest and sensitizing cells to DNA damaging agents” (CanBas Co. Ltd., priority 1999, dated 2010)

Molecular target: human Chk2 kinase (Homo sapiens, UniProt O96017)
Assay: In vitro phosphorylation (kination) of membrane-immobilized peptides by human Chk2 kinase (Gst-Chk2)
Assay type: biochemical
Parameters: key to phosphorylation signal by human Chk2 kinase (graded) / in vitro phosphorylation by human Chk2 kinase (graded signal): a “+++” indicates the peptide was relatively highly phosphorylated; a “++” indicates the peptide was relatively less phosphorylated; a “+” indicates the peptide was detectably significantly phosphorylated over negative control; no indication indicates that a peptide was not significantly phosphorylated over negative control
Conditions: γ-33P-ATP, RT 1 hr; for in vitro phosphorylation by human Chk2 kinase (graded signal): image analyzer signal graded −; for phosphorylation signal by human Chk2 kinase (graded): peptide on membrane, Gst-Chk2
Experimental: Exemplary peptides were directly synthesized (immobilized) on a membrane and contacted with human Chk2 kinase. Specifically, oligo-peptides with all sequences predicted by the 3-dimensional model were directly synthesized on a membrane by using an auto-spot-peptide-synthesizer, Model ASP-22 2 (ABiMED, Germany). The amount of peptide was about 0.1 micro-mol/cm^2.
The membrane was incubated with 2% Gly-Gly in PBS for 2 hours (hr) at room temperature (RT). Then, they were washed three times with 0.1% Tween-P BS™. The “kination,” or “phosphorylation,” reaction was performed with a recombinant fusion protein Gst-Chk2 at a concentration of about 5 μg in 4 ml reaction buffer, 1 mM MgCl2, 2% Gly-Gly and γ-^33P-ATP in PBS at RT for 1 hr. After the reaction, the membrane was washed 5 times with RIPA (1% SDS, 1% NP-40, 100 mM NaCl) and analyzed with a Bass 2500™ image analyzer (Fuji, Japan).
The following Table 1 is a complete list of tested peptides and results of the in vitro phosphorylation by human Chk2 kinase assay.
The following example describes studies which identified exemplary G2 checkpoint-abrogating peptides of the invention. The following peptides of the invention were synthesized directly on membranes and tested in in vitro phosphorylation (“kination” assays, as described above.
These peptides were tested in in vitro kination reactions. The oligopeptides were used as phosphorylation substrates; added kinases are involved in the cell cycle G2 checkpoint. Thus, a substance that inhibits the kination reaction can be a cell cycle 62 checkpoint abrogator. For the detection of the phosphorylation status of substrates in this screening method, isotope-labeled ATP and anti-phospho-peptides antibody can be used.

[1] = peptide synthesized on membrane (about 0.1 micro-mol/cm^2), Gst-Chk2 about 5 μg in 4 ml reaction buffer
[2] = peptide synthesized on membrane, about 0.1 micro-mol/cm^2, Gst-Chk2 about 5 μg in 4 ml

Chain of human Chk2 kinase (O96017 whole entry): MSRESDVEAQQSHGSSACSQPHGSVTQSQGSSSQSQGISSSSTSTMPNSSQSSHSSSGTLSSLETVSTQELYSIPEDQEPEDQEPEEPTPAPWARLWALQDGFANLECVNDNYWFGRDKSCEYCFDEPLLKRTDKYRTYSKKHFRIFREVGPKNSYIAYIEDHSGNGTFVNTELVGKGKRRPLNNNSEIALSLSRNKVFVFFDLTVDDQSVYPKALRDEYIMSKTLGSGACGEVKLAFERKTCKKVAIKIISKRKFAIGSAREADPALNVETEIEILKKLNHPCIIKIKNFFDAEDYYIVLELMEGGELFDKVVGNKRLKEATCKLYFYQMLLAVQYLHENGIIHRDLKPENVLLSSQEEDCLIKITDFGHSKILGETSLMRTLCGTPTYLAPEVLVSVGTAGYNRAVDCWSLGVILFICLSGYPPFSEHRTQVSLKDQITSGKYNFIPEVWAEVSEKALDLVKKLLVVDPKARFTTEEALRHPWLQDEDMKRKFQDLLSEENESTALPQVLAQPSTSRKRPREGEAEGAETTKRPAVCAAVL

LYTSPSYWENL was tested, and the “in vitro phosphorylation by human Chk2 kinase (graded signal)” value (“in vitro phosphorylation” for short) [1] was “++”.
For LYHSPSYPENL, the “in vitro phosphorylation” value [1] was “+”.
LYSSPSYYENL was tested, and the “in vitro phosphorylation” value [1] was “+”.
With LYRSPSHYENL the “in vitro phosphorylation” value [1] was “+”.
With LYTSPSNYENL the “in vitro phosphorylation” value [1] was “+”.
With LYTSPSFWENL the “in vitro phosphorylation” value [1] was “++”.
With RYSLPPELSNM the “phosphorylation signal by human Chk2 kinase (graded)” value was “+” and the “in vitro phosphorylation” value [1] was “+”.
For LYTSPSHYENL, the “in vitro phosphorylation” value [1] was “+”.
For 1128 (WYRSPSFFENL) [compound 1128], the “in vitro phosphorylation” value [2] was “++”.
For LYSSPSYPENL, the “in vitro phosphorylation” value [1] was “+”.
For LYTSPSYPENL, the “in vitro phosphorylation” value [1] was “++”.
With 1132 (WYRSPSYPENL) [compound 1132] the “in vitro phosphorylation” value [2] was “++”.
In the case of LYRSPSAMPENL, the “phosphorylation signal by human Chk2 kinase (graded)” value is reported as “+”.
In the case of LYTSPSFYENL, the “in vitro phosphorylation” value [1] is reported as “++”.
In the case of LYSSPSYFENL, the “in vitro phosphorylation” value [1] is reported as “+”.
With LFTSPSYFENL the “in vitro phosphorylation” value [1] was “+”.
For 1212 (WYTSPSYPENL) [compound 1212], the “in vitro phosphorylation” value [2] was “++”.
For LYSSPSMWENL, the “in vitro phosphorylation” value [1] was “+”.
With LYTSPSMYENL the “in vitro phosphorylation” value [1] was “++”.
For LYTSPSHPENL, the “in vitro phosphorylation” value [1] was “+”.
LYRSPSYFENL was tested, and the “in vitro phosphorylation” value [1] was “+”.
In the case of LYRSPSHPENL, the “in vitro phosphorylation” value [1] is reported as “+”.
For LYTSPSNPENL, the “in vitro phosphorylation” value [1] was “+”.
For LYSSPSFFENL, the “in vitro phosphorylation” value [1] was “+”.
With LYTSPSNWENL the “in vitro phosphorylation” value [1] was “+”.
With LYTSPSMPENL the “in vitro phosphorylation” value [1] was “++”.
LYSSPSQPENL was tested, and the “in vitro phosphorylation” value [1] was “+”.
With 1134 (WYRSPSYYENL) [compound 1134] the “in vitro phosphorylation” value [2] was “++”.
With LYRSPSNPENL the “in vitro phosphorylation” value [1] was “+”.
LYSSPSFPENL was tested, and the “in vitro phosphorylation” value [1] was “+”.
With LYSSPSMYENL the “in vitro phosphorylation” value [1] was “+”.
LFTSPSYWENL was tested, and the “in vitro phosphorylation” value [1] was “+”.
In the case of LYSSPSMFENL, the “in vitro phosphorylation” value [1] is reported as “+”.
With LYRSPSNYENL the “in vitro phosphorylation” value [1] was “+”.
For LYHSPSYYENL, the “in vitro phosphorylation” value [1] was “+++”.
With LYSSPSFYENL the “in vitro phosphorylation” value [1] was “+”.
For LFTSPSYYENL, the “in vitro phosphorylation” value [1] was “+++”.
In the case of 1130 (WYRSPSFWENL) [compound 1130], the “in vitro phosphorylation” value [2] is reported as “++”.
1125 (WYRSPSMWENL) [compound 1125] was tested, and the “in vitro phosphorylation” value [2] was “++”.
LYTSPSFFENL was tested, and the “in vitro phosphorylation” value [1] was “++”.
For LYRSPSYYENL, the “in vitro phosphorylation” value [1] was “+”.
LYTSPSHWENL was tested, and the “in vitro phosphorylation” value [1] was “+”.
In the case of LYTSPSFPENL, the “in vitro phosphorylation” value [1] is reported as “++”.
LYRSPSMPENL was tested, and the “in vitro phosphorylation” value [1] was “+”.
In the case of LYSSPSHWENL, the “in vitro phosphorylation” value [1] is reported as “++”.
In the case of LYTSPSMFENL, the “in vitro phosphorylation” value [1] is reported as “++”.
With LFTSPSYPENL the “in vitro phosphorylation” value [1] was “+”.
LYSSPSHPENL was tested, and the “in vitro phosphorylation” value [1] was “++”.
